Measurements from the supplement of paper PMC10065799, “High-throughput profiling of sequence recognition by tyrosine kinases and SH2 domains using bacterial peptide display” (eLife, 2023).

Tests used:
[1] = test system: AncSZ; experiment: phosphorylation enrichment, bacterial display (enrichment ratio); higher = better substrate or ligand; peptides without Tyr show the background
[2] = biological target: EPHB1 (UniProt P54762); experiment: as above
[3] = biological target: EPHB2 (UniProt P29323); experiment: as above
EPHB2, sequence (P29323 whole entry, looked up): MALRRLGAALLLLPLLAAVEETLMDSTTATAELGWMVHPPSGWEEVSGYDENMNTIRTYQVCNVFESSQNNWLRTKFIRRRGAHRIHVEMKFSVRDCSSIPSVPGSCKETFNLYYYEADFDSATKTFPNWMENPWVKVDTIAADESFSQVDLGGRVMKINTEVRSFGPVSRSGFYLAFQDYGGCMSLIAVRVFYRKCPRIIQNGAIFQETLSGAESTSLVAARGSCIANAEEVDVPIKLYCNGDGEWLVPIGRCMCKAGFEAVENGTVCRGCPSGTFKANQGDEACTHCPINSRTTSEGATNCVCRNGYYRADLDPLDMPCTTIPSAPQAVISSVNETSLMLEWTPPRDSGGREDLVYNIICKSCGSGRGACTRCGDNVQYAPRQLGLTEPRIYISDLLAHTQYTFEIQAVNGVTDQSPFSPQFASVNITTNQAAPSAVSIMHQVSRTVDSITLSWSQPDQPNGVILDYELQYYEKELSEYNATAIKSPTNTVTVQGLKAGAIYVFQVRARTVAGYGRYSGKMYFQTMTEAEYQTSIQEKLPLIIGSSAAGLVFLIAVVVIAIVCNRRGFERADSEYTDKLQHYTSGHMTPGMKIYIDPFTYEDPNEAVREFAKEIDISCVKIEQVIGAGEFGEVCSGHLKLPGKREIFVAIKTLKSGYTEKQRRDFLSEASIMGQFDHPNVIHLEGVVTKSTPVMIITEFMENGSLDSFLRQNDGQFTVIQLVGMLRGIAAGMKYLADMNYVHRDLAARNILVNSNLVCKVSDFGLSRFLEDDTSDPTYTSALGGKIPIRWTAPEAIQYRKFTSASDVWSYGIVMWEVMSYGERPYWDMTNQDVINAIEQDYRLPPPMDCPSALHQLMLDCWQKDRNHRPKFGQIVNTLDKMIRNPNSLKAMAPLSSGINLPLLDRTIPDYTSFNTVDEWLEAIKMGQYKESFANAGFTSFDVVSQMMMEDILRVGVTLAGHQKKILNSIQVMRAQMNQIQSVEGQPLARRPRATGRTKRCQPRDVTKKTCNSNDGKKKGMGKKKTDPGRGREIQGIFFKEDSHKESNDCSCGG

[4] = biological target: FGFR1 (UniProt P11362); experiment: as above
[5] = biological target: FGFR3 (UniProt P22607); experiment: as above
[6] = test system: Fer (mouse); experiment: as above
[7] = biological target: Fes (UniProt P07332); experiment: as above
Fes, sequence (P07332 whole entry, looked up): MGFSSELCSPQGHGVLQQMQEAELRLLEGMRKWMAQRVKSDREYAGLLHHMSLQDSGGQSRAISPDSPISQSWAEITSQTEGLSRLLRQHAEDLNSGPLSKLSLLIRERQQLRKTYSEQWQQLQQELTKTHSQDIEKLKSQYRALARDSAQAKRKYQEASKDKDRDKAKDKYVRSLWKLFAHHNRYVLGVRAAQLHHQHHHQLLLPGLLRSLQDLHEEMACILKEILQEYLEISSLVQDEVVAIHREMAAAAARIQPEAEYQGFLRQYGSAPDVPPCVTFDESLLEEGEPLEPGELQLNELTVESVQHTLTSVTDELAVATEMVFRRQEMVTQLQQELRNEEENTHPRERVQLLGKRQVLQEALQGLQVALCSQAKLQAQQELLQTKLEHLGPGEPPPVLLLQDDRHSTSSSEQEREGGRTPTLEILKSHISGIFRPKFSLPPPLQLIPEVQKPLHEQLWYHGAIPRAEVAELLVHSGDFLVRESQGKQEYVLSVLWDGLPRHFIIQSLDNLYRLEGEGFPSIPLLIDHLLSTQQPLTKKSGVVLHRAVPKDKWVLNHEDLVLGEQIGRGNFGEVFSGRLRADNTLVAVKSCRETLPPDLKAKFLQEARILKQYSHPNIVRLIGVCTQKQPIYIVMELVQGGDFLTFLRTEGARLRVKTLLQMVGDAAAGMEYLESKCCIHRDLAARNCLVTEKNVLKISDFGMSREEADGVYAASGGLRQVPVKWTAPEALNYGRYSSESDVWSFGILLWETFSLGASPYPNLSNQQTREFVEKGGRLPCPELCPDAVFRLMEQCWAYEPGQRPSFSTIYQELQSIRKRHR

[8] = biological target: Fyn (UniProt P06241); experiment: as above
[9] = biological target: Hck (UniProt P08631); experiment: as above
Hck, sequence (P08631 whole entry, looked up): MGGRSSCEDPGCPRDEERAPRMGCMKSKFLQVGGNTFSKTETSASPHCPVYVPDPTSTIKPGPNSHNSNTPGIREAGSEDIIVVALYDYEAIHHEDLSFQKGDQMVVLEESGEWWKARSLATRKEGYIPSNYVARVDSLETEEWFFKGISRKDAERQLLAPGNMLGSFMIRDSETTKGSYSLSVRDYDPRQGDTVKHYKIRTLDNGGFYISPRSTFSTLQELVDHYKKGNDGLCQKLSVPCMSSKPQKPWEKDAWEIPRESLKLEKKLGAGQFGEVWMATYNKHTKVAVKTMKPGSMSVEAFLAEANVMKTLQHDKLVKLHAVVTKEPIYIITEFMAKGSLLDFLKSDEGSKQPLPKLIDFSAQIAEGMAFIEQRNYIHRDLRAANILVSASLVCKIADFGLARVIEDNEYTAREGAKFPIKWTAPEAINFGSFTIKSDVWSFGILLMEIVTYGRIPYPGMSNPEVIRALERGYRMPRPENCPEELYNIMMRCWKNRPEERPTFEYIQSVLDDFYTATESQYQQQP

[10] = biological target: Jak2 (UniProt O60674); experiment: as above
Jak2, sequence (O60674 whole entry, looked up): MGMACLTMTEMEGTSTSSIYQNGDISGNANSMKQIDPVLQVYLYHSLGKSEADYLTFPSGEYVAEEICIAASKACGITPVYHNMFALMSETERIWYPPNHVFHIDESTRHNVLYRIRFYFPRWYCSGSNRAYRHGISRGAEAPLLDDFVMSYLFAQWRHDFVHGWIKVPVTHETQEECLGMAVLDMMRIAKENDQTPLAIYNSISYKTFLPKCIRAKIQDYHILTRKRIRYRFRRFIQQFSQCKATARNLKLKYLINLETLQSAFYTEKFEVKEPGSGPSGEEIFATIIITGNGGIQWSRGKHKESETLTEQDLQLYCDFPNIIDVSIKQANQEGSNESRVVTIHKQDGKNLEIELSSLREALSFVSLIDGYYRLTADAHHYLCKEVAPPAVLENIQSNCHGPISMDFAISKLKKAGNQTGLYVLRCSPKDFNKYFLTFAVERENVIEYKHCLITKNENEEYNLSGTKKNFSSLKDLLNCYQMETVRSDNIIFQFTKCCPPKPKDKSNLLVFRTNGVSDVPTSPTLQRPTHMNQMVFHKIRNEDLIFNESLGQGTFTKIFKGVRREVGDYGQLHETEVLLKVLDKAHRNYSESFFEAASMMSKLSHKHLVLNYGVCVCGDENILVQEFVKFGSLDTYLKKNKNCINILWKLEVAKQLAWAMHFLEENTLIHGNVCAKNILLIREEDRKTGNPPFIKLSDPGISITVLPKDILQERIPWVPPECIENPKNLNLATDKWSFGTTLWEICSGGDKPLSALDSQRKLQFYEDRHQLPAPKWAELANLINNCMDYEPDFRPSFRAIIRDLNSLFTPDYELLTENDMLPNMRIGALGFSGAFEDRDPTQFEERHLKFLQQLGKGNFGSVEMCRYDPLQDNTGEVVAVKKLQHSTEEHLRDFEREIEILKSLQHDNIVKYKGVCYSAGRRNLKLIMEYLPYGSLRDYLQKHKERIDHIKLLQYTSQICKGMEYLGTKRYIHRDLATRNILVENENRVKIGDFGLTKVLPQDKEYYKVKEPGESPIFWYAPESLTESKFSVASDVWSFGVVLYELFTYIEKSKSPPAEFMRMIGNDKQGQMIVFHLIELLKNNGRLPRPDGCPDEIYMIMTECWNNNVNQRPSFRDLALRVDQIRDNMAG

[11] = biological target: MERTK (UniProt Q12866); experiment: as above
[12] = test system: c-Abl (mouse); experiment: as above
[13] = test system: c-Src; experiment: as above
[14] = biological target: Grb2 SH2 (UniProt P62993); experiment: SH2 binding enrichment of the phosphorylated peptide, bacterial display (enrichment ratio); higher = better substrate or ligand; peptides without Tyr show the background
Grb2 SH2, sequence (P62993 whole entry, looked up): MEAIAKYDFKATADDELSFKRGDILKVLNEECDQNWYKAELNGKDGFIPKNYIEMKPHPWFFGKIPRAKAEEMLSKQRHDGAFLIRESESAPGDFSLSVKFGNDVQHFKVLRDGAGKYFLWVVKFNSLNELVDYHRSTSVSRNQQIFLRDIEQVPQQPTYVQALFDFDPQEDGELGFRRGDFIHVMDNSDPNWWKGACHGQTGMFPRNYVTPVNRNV

[15] = biological target: SHP2-C SH2; experiment: as above
[16] = biological target: c-Src SH2; experiment: as above
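Wherever SH2 binding enrichment of the phosphorylated peptide, bacterial display is given: peptide library displayed on the E. coli surface as eCPX fusions, selected cells deep-sequenced, score is each peptide's frequency after selection divided by its frequency in the input.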
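Wherever phosphorylation enrichment, bacterial display is given: 11-residue human phosphosite peptides and single-mutation variants displayed on the E. coli surface, counted by deep sequencing, each peptide's frequency after selection divided by its frequency in the unselected input library; frequency after pTyr selection over input frequency; kinase dosed for 20-30% of maximal phosphorylation in three min.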

EPHB1, sequence (P54762 whole entry, looked up): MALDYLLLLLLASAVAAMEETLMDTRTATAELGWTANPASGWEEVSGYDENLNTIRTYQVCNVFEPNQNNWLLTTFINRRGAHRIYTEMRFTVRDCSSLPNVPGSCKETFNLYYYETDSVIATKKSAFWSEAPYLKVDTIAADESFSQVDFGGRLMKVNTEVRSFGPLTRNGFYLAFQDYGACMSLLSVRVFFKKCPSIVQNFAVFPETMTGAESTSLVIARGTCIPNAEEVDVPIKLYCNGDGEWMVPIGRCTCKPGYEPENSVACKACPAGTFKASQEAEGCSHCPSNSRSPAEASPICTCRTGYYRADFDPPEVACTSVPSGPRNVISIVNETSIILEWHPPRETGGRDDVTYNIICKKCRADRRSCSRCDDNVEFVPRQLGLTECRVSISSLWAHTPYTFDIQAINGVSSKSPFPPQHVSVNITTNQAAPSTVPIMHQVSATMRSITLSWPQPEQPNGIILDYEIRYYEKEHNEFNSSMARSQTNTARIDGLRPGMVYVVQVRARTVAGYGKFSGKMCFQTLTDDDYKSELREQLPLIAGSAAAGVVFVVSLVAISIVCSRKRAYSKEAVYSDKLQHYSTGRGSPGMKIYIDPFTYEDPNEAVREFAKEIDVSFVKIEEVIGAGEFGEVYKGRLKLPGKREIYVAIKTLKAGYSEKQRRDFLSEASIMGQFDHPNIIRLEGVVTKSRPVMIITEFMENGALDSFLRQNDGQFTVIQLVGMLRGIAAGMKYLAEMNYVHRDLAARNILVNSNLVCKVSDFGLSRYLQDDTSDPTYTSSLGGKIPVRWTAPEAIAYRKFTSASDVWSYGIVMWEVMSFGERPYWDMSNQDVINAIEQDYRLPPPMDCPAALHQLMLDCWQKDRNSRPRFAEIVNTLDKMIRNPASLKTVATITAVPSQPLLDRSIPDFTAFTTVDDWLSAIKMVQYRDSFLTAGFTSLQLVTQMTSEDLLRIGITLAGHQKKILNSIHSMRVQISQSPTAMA

Row | Sequence | phosphorylation enrichment [1] | phosphorylation enrichment [2] | phosphorylation enrichment [3] | phosphorylation enrichment [4] | phosphorylation enrichment [5] | phosphorylation enrichment [6] | phosphorylation enrichment [7] | phosphorylation enrichment [8] | phosphorylation enrichment [9] | phosphorylation enrichment [10] | phosphorylation enrichment [11] | phosphorylation enrichment [12] | phosphorylation enrichment [13] | SH2 binding enrichment [14] | SH2 binding enrichment [15] | SH2 binding enrichment [16]
1 | GSETPYVDRTP [ESS2_Y335] | 0.711 | 0.408 | 0.477 | 0.488 | 0.553 | 0.409 | 0.821 | 0.451 | 0.429 | 0.813 | 0.466 | 0.603 | 0.453 | 0.814 | 0.719 | 0.573
2 | GSIQQYIYKQE [PRG4_Y1271] | 0.651 | 0.425 | 0.567 | 0.507 | 0.539 | 0.398 | 0.644 | 0.522 | 0.439 | 0.811 | 0.433 | 0.486 | 0.752 | 0.919 | 0.837 | 0.294
3 | GSTLSYGRDGR [MATR3_Y158_P154S] | 0.545 | 0.339 | 0.343 | 0.389 | 0.466 | 0.374 | 0.516 | 0.353 | 0.376 | 0.452 | 0.374 | 0.392 | 0.382 | 0.793 | 0.642 | 0.465
4 | GTATAYLCGVK [ALPL_Y117] | 0.756 | 0.512 | 0.507 | 0.485 | 0.595 | 0.463 | 1.07 | 0.472 | 0.501 | 0.89 | 0.352 | 0.667 | 0.427 | 0.763 | 0.695 | 0.432
5 | GTSLIYWILFT [G6PC3_Y214_T216I] | 1.18 | 1 | 0.749 | 1.17 | 1.38 | 0.55 | 1.56 | 2.42 | 1.74 | 1.59 | 1.46 | 1.43 | 2.67 | 0.742 | 0.695 | 0.593
6 | GVRLFYRVMES [RB1_Y454_YF] | 1.29 | 0.655 | 0.576 | 0.488 | 0.815 | 0.517 | 1.42 | 0.448 | 0.541 | 1.38 | 0.381 | 0.83 | 0.39 | 0.624 | 0.684 | 0.429
7 | GVRTIYTIDGS [DCLK2_Y124] | 0.803 | 0.563 | 0.507 | 0.581 | 0.506 | 0.52 | 0.846 | 1.38 | 0.697 | 0.69 | 0.553 | 0.5 | 1.6 | 0.968 | 0.941 | 0.521
8 | GVYSRYFTTYD [CLCA1_Y661] | 1.35 | 1.12 | 1.25 | 0.571 | 0.729 | 0.573 | 1 | 4.58 | 3.33 | 1.07 | 3.71 | 0.955 | 4.77 | 0.944 | 1.27 | 1.06
9 | HAVEDYQAIVD [CCT7_Y263_T259A] | 1.54 | 0.73 | 1.03 | 0.864 | 1.05 | 0.653 | 1.47 | 0.792 | 0.714 | 1.25 | 3.12 | 1.19 | 0.942 | 1.09 | 0.768 | 0.696
10 | HDEPTYARSSK [PEAK1_Y616] | 0.785 | 0.478 | 0.321 | 0.389 | 0.575 | 0.57 | 1.03 | 0.519 | 0.918 | 1.01 | 0.679 | 0.864 | 1.29 | 0.92 | 0.819 | 0.576
11 | HEEKVYLSRGD [CRACR2A_Y141] | 0.884 | 0.541 | 0.526 | 0.672 | 1.17 | 0.569 | 1.05 | 0.995 | 0.885 | 0.784 | 0.611 | 0.826 | 1.08 | 0.812 | 0.495 | 0.366
12 | HEKKAYSFCGT [RPS6KA3_Y226] | 1.73 | 0.703 | 1.18 | 1.51 | 1.68 | 0.989 | 1.8 | 1.09 | 1.49 | 0.695 | 0.725 | 0.725 | 0.65 | 0.999 | 0.729 | 0.808
13 | HEKRAYICAHP [ACAD9_Y611_L606H] | 0.742 | 0.454 | 0.434 | 0.543 | 0.548 | 0.593 | 0.77 | 0.447 | 0.49 | 1.3 | 0.439 | 0.59 | 0.448 | 0.96 | 0.962 | 0.969
14 | HEPKGYNANFC [TGFB2_Y341] | 0.808 | 0.656 | 0.719 | 0.647 | 0.596 | 0.581 | 0.92 | 0.558 | 0.553 | 0.737 | 0.559 | 0.847 | 0.595 | 1.07 | 0.693 | 0.664
15 | HFPFQYHRQLF [F12_Y53_YF] | 0.924 | 0.618 | 0.585 | 0.555 | 0.694 | 0.538 | 0.78 | 0.466 | 0.52 | 0.669 | 0.507 | 1.44 | 0.546 | 1.67 | 1.14 | 1.14
16 | HGDDDYDDPEL [CLNK_Y69_S65G] | 1.91 | 0.756 | 0.753 | 0.91 | 1.02 | 0.717 | 2 | 0.69 | 0.743 | 1.39 | 0.667 | 0.745 | 0.477 | 0.99 | 0.551 | 0.565
17 | HIAKVYRRDNP [HARS1_Y156] | 0.982 | 0.36 | 0.463 | 0.451 | 0.772 | 0.507 | 0.989 | 0.775 | 0.592 | 0.659 | 0.734 | 1.24 | 1.02 | 1.36 | 0.722 | 0.747

Row | Sequence | phosphorylation enrichment [1] | phosphorylation enrichment [2] | phosphorylation enrichment [3] | phosphorylation enrichment [4] | phosphorylation enrichment [5] | phosphorylation enrichment [6] | phosphorylation enrichment [7] | phosphorylation enrichment [8] | phosphorylation enrichment [9] | phosphorylation enrichment [10] | phosphorylation enrichment [11] | phosphorylation enrichment [12] | phosphorylation enrichment [13] | SH2 binding enrichment [14] | SH2 binding enrichment [15] | SH2 binding enrichment [16]
18 | HITQVYGFFDE [PPP2CA_Y127_Q122H_YF] | 2.03 | 1.09 | 1.11 | 1.32 | 1.16 | 0.823 | 2.38 | 15.7 | 7.13 | 1.95 | 2.8 | 1.69 | 12.7 | 1.56 | 1.12 | 0.838
19 | HLDRSYSFSFS [PEAR1_Y890_R885H_YF] | 1.75 | 0.638 | 0.658 | 0.841 | 0.897 | 0.999 | 2.08 | 0.561 | 0.726 | 1.78 | 0.964 | 1.17 | 1.12 | 0.808 | 0.448 | 0.563
20 | HLWRIYFDITD [MMP27_Y307_YF] | 1.39 | 1.15 | 0.771 | 0.973 | 1.19 | 0.531 | 1.81 | 0.532 | 0.739 | 1.52 | 0.366 | 1.27 | 0.462 | 0.877 | 0.695 | 0.491
21 | HNLDFYKKTTN [FGFR3_Y648_YF] | 3.51 | 1.76 | 2.13 | 1.28 | 1.68 | 2.46 | 3.91 | 0.916 | 1.15 | 5.47 | 1.95 | 3.49 | 2.23 | 1.02 | 0.602 | 0.5
22 | HNVPIYEGFAL [ACTA1_Y168_YF] | 1.59 | 22.5 | 28.1 | 0.649 | 0.785 | 22.7 | 7.74 | 15.1 | 14.1 | 0.894 | 12.4 | 23.5 | 10.6 | 0.849 | 0.794 | 0.431
23 | HPFHVYSQPGM [BAG3_Y114_P115S] | 1.78 | 0.649 | 0.945 | 0.753 | 0.908 | 0.719 | 1.39 | 1.24 | 1.74 | 0.984 | 0.804 | 0.847 | 0.937 | 1.39 | 0.806 | 18.1
24 | HRFAAYFQQGD [GPI_Y351] | 1.17 | 0.88 | 0.759 | 0.962 | 0.897 | 0.496 | 1.79 | 0.633 | 0.501 | 1.59 | 0.643 | 0.979 | 0.609 | 0.97 | 0.77 | 0.662
25 | HRGYLYLAIEY [TEK_Y899] | 1.23 | 0.558 | 0.485 | 0.521 | 0.602 | 0.432 | 1.22 | 0.485 | 0.466 | 1.03 | 0.486 | 1.24 | 0.375 | 1.24 | 1.11 | 0.695
26 | HYVYYYSYLLK [PTEN_Y178_R173H] | 2.09 | 2.74 | 1.37 | 6.85 | 5.92 | 0.888 | 2.12 | 1.29 | 3.19 | 2.42 | 5.74 | 2.31 | 3.08 | 0.865 | 0.702 | 0.425
27 | IAINKYEVSLI [MYO7A_Y2136_G2137E] | 0.89 | 0.505 | 0.562 | 0.445 | 0.635 | 0.486 | 0.99 | 0.514 | 0.493 | 0.851 | 0.371 | 0.598 | 0.451 | 0.805 | 0.981 | 0.59
28 | ICANKYMVESC [RPL10_Y75_K78E] | 0.982 | 0.482 | 0.502 | 0.596 | 0.659 | 0.455 | 1.14 | 0.47 | 0.574 | 0.982 | 0.432 | 0.657 | 0.53 | 0.913 | 0.861 | 0.675
29 | IDAICYYRMEN [NPHS2_Y194] | 1.99 | 0.786 | 0.721 | 3.09 | 3.18 | 0.642 | 1.49 | 0.66 | 0.8 | 3.15 | 0.844 | 0.927 | 1.71 | 0.71 | 0.534 | 0.499
30 | IEDPYYGNDSD [ACP1_Y133] | 1.5 | 0.638 | 0.809 | 0.807 | 1.09 | 0.548 | 1.39 | 0.81 | 0.759 | 1.35 | 0.45 | 0.83 | 1.6 | 1.07 | 0.709 | 0.623
31 | IEENGYNTYAS [FGF10_Y161] | 1.02 | 0.534 | 0.593 | 0.562 | 0.674 | 0.49 | 1.12 | 0.606 | 0.645 | 0.802 | 0.422 | 0.64 | 0.6 | 0.759 | 0.64 | 1.12
32 | IENKLYGMSDP [RET_Y1062] | 0.941 | 0.506 | 0.653 | 0.585 | 0.689 | 0.666 | 0.988 | 0.613 | 0.732 | 0.617 | 0.546 | 0.707 | 0.698 | 0.811 | 0.521 | 0.533
33 | IFHLSYLHNCE [PDE6B_Y227_YF] | 0.985 | 0.589 | 0.566 | 0.494 | 0.856 | 0.562 | 1.26 | 0.546 | 0.512 | 0.956 | 0.436 | 0.782 | 0.431 | 1.18 | 0.894 | 0.862
